This note sets out measurements from patent US20070178448A1 (Scripps Research, published 2007).

This experiment addresses T1, streptavidin (UniProt P22629 37-163, limits assumed).
T1 construct: also called streptavidin coated microtiter plates (Pierce); strepavidin
In words: phage capture on streptavidin coated wells, elution with 10 µM biotin, titer of input and output phage. The procedure: In a model phage selection experiment, wild-type phage and phage carrying the mutant SBP with p-azido-L-phenylalanine were exposed to streptavidin coated wells, followed by recovery of the bound phage. Titer of the recovered enriched phage following elution was used as a measure of the binding specificity of the page for the streptavidin.
Specifically, two wells from a streptavidin coated microtiter plate (Pierce) were blocked with 300 μL of 4% BSA in 1×PBS at 4° C. overnight. After washing, separate streptavidin coated wells were incubated with similar numbers of phage (each in 100 μL) of either M13KE-SBP prepared in TTS/RS 3 or M13KE wild type phage at room temperature for 2 hours and washed 10 times with 200 μL PBST. The bound phage was eluted from the plate solid support with 10 μM biotin 1×PBS, pH 7.4. The input and output phage were titered (see, FIG. 9).

Non-standard residues stand in square brackets, D forms with d. No end group written: not given here. Phe(4-Ac) = CC(=O)c1ccc(C[C@H](N)C(=O)O)cc1

T1 sequence (P22629 37-163 limits assumed): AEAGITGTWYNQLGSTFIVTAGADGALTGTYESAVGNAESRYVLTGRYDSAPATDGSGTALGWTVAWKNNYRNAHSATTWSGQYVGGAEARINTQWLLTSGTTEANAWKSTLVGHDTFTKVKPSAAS

B1: M13KE-SBP phage prepared in TTS/RS 3 in the presence of p-acetylphenylalanine 3 (streptavidin binding peptide AGXTLLAHPQ, X = p-acetyl-L-phenylalanine, as … (peptide)
chain: AG[Phe(4-Ac)]TLLAHPQ
modifications: not fully specified (C-terminus)
notes: also called M13KE-SBP phage prepared in TTS/p-acetylphenylalanine 3; M13KE-SBP prepared in TTS/RS 3; not shown: pIII minor coat protein of M13 filamentous phage (vector M13KE); peptide fused at its N-terminus after the signal peptid
As to B1, the “recovery rate, fold over that of M13KE wild-type phage” value was found to be 9000 fold.
